Experimental data as given in the Human Domainome abundance scans (Beltran et al. 2025).

B1: Integrator complex subunit 12, residues 155 to 213; numbered along this chain, Q96CB8 (parent)
chain: AMEMGLACVVCRQMMVASGNQLVECQECHNLYHRDCHKPQVTDKEANDPRLVWYCARCT

Variants of: B1
Experiment: abundance fitness (aPCA) (normalised: wild type 0, dead -1); higher = more abundant; growth selection in yeast, the domain comes from the species named
Conditions: Homo sapiens

Abundance fitness: each site, then its substitutions
R50: F -0.126, K 0.025, I -0.242, M -0.028, C -0.104, Q -0.059, A 0.014, H -0.06, W -0.206, L -0.068, D -0.017, E 0.02, V -0.177, G 0.014, N 0.15, T 0.041, P -0.033, S 0.057
Q40: D -0.07, K -0.035, F -0.023, G 0.001, P -0.009, M -0.112, T 0.02, L -0.045, N 0.051, I 0.023, W -0.102, V -0.063, C 0.148, E -0.04, A -0.002, H -0.055, Y -0.264
P49: E 0.027, M -0.06, L -0.101, Y -0.258, H -0.132, F -0.333, C -0.318, I 0.002, A -0.046, T 0.023, V -0.082, G 0.062, S -0.007, D 0.026, N -0.17, K 0.001, R -0.022
Y54: H 0.119, L 0.026, T 0.067, P -0.35, N 0.007, Q 0.027, S 0.04, A -0.093, E -0.069, R 0.116, V -0.068, I -0.113, G -0.187
V41: F -0.175, N -0.481, D -0.297, S -0.204, H -0.639, G -0.235, C -0.276, P -0.211, T -0.165, R -0.308, I 0.135, L -0.011, W -0.314, Y -0.346, E -0.303
D35: W -0.089, N -0.052, M 0.042, R -0.029, L 0.06, Q 0.094, Y -0.074, V -0.083, T 0.023, S -0.034, P -0.215
T42: N -0.041, I -0.281, H -0.089, V -0.136, G 0, E -0.066, Q -0.064, A -0.024, M -0.153, C 0.069, D -0.107, K -0.01, Y -0.165, F -0.24, W -0.198, P 0.039
C36: V -0.73, N -0.615, W -0.843, L -0.763, Y -0.727, F -0.775, A -0.671, I -0.691, G -0.606, M -0.63, T -0.588, P -0.585, Q -0.672, K -0.79, R -0.619, E -0.696, H -0.516, S -0.716, D -0.802
K38: M -0.05, Q -0.015, R -0.028, N -0.209, F -0.139, C -0.089, P -0.309, D 0.081, G -0.15, S 0.016, L -0.096, Y -0.134, W -0.341, T 0.011, E 0.008, V 0.035
D48: K -0.027, L -0.138, M -0.085, T 0.016, W -0.149, V -0.063, H -0.081, Y -0.178, N -0.128, F -0.254, Q -0.002, R -0.154, I -0.187, G -0.083, E -0.054, P -0.214, S -0.119, C -0.265
N47: M -0.105, I -0.11, Q -0.092, E -0.005, V -0.066, H 0.011, G 0.02
